The labels stand for the following.
T1: Factor VIIIa (recombinant FVIII, Kogenate FS, activated with alpha-thrombin) (UniProt P00451 20-2351)
T1 construct: also called FVIIIa
T1 sequence (looked up): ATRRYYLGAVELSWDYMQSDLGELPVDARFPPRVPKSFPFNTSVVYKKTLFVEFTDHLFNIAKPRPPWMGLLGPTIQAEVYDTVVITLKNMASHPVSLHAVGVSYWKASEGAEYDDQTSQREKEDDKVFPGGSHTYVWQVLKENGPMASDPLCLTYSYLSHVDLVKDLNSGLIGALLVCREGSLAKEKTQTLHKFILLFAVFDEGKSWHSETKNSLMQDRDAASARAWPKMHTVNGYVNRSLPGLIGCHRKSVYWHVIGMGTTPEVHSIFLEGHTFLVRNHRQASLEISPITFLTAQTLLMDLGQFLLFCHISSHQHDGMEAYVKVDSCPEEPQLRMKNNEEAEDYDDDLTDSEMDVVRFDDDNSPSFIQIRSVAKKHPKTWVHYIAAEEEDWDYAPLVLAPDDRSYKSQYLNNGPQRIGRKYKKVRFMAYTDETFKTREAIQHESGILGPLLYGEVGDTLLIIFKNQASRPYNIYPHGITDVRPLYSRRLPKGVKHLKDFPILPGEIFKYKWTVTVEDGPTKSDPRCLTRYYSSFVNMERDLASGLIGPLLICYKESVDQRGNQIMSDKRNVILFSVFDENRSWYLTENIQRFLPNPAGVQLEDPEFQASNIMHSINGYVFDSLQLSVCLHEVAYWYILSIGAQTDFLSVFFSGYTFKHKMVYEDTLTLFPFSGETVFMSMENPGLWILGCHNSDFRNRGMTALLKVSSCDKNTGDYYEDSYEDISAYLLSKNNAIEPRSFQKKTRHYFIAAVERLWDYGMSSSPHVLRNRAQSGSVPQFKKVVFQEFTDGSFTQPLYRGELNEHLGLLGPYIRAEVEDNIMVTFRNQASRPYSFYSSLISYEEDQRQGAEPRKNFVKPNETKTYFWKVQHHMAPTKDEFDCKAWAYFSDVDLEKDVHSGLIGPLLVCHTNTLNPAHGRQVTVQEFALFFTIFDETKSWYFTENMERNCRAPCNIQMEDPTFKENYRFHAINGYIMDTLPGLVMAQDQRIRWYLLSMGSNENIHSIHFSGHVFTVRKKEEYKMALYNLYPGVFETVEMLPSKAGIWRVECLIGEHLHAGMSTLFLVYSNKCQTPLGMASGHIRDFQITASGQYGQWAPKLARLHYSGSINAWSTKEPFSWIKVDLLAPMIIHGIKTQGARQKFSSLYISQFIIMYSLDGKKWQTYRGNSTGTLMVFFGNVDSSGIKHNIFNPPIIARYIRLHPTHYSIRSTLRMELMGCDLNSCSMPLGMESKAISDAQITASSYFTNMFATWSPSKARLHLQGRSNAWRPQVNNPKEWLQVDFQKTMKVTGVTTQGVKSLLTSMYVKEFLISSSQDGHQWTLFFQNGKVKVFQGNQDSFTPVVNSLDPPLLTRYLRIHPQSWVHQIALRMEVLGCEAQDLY

B1: FIXa-R318Y/R338E/T343R (enzyme)
chain 1: YNSGKLEEFVQGNLERECMEEKCSFEEAREVFENTERTTEFWKQYVDGDQCESNPCLNGGSCKDDINSYECWCPFGFEGKNCELDVTCNIKNGRCEQFCKNSADNKVVCSCTEGYRLAENQKSCEPAVPFPCGRVSVSQTSKLTR
chain 2: VVGGEDAKPGQFPWQVVLNGKVDAFCGGSIVNEKWIVTAAHCVETGVKITVVAGEHNIEETEHTEQKRNVIRIIPHHNYNAAINKYNHDIALLELDEPLVLNSYVTPICIADKEYTNIFLKFGSGYVSGWGRVFHKGYSALVLQYLRVPLVDRATCLESTKFRIYNNMFCAGFHEGGRDSCQGDSGGPHVTEVEGTSFLTGIISWGEECAMKGKYGIYTKVSRYVNWIKEKTKLT
notes: also called R150Y/R170E/T175R (chymotrypsin numbering); CB2679d
B2: FIXa-R338E/T343R/E410N (enzyme)
chain 1: YNSGKLEEFVQGNLERECMEEKCSFEEAREVFENTERTTEFWKQYVDGDQCESNPCLNGGSCKDDINSYECWCPFGFEGKNCELDVTCNIKNGRCEQFCKNSADNKVVCSCTEGYRLAENQKSCEPAVPFPCGRVSVSQTSKLTR
chain 2: VVGGEDAKPGQFPWQVVLNGKVDAFCGGSIVNEKWIVTAAHCVETGVKITVVAGEHNIEETEHTEQKRNVIRIIPHHNYNAAINKYNHDIALLELDEPLVLNSYVTPICIADKEYTNIFLKFGSGYVSGWGRVFHKGRSALVLQYLRVPLVDRATCLESTKFRIYNNMFCAGFHEGGRDSCQGDSGGPHVTEVEGTSFLTGIISWGEECAMKGKYGIYTKVSRYVNWIKNKTKLT
notes: also called R170E/T175R/E240N (chymotrypsin numbering)
B3: FIXa-K247N/N249S/R318Y/R338E/T343R (enzyme)
chain 1: YNSGKLEEFVQGNLERECMEEKCSFEEAREVFENTERTTEFWKQYVDGDQCESNPCLNGGSCKDDINSYECWCPFGFEGKNCELDVTCNIKNGRCEQFCKNSADNKVVCSCTEGYRLAENQKSCEPAVPFPCGRVSVSQTSKLTR
chain 2: VVGGEDAKPGQFPWQVVLNGKVDAFCGGSIVNEKWIVTAAHCVETGVKITVVAGEHNIEETEHTEQNRSVIRIIPHHNYNAAINKYNHDIALLELDEPLVLNSYVTPICIADKEYTNIFLKFGSGYVSGWGRVFHKGYSALVLQYLRVPLVDRATCLESTKFRIYNNMFCAGFHEGGRDSCQGDSGGPHVTEVEGTSFLTGIISWGEECAMKGKYGIYTKVSRYVNWIKEKTKLT
notes: also called K82N/N84S/R150Y/R170E/T175R (chymotrypsin numbering)
B4: FIXa-K228N/K247N/N249S/R318Y/R338E/T343R/R403E/E410N (enzyme)
chain 1: YNSGKLEEFVQGNLERECMEEKCSFEEAREVFENTERTTEFWKQYVDGDQCESNPCLNGGSCKDDINSYECWCPFGFEGKNCELDVTCNIKNGRCEQFCKNSADNKVVCSCTEGYRLAENQKSCEPAVPFPCGRVSVSQTSKLTR
chain 2: VVGGEDAKPGQFPWQVVLNGKVDAFCGGSIVNEKWIVTAAHCVETGVNITVVAGEHNIEETEHTEQNRSVIRIIPHHNYNAAINKYNHDIALLELDEPLVLNSYVTPICIADKEYTNIFLKFGSGYVSGWGRVFHKGYSALVLQYLRVPLVDRATCLESTKFRIYNNMFCAGFHEGGRDSCQGDSGGPHVTEVEGTSFLTGIISWGEECAMKGKYGIYTKVSEYVNWIKNKTKLT
notes: also called K63N/K82N/N84S/R150Y/R170E/T175R/R233E/E240N (chymotrypsin numbering)
B5: FIXa-R338E/T343R/R403E (enzyme)
chain 1: YNSGKLEEFVQGNLERECMEEKCSFEEAREVFENTERTTEFWKQYVDGDQCESNPCLNGGSCKDDINSYECWCPFGFEGKNCELDVTCNIKNGRCEQFCKNSADNKVVCSCTEGYRLAENQKSCEPAVPFPCGRVSVSQTSKLTR
chain 2: VVGGEDAKPGQFPWQVVLNGKVDAFCGGSIVNEKWIVTAAHCVETGVKITVVAGEHNIEETEHTEQKRNVIRIIPHHNYNAAINKYNHDIALLELDEPLVLNSYVTPICIADKEYTNIFLKFGSGYVSGWGRVFHKGRSALVLQYLRVPLVDRATCLESTKFRIYNNMFCAGFHEGGRDSCQGDSGGPHVTEVEGTSFLTGIISWGEECAMKGKYGIYTKVSEYVNWIKEKTKLT
notes: also called R170E/T175R/R233E (chymotrypsin numbering)

This assay has as its target T1, Factor VIIIa (recombinant FVIII, …). As to the kind of experiment: functional cofactor affinity KD-app: fluorogenic FX activation (Xase) assay, FVIIIa titrated, PC/PS vesicles, saturating FX.
Experimental: Reactions were monitored in a SpectraMax fluorescence plate reader for 30 min at 37° C. A standard curve of free AMC served as the conversion factor for RFU to μM in the subsequent data analysis calculations using a dose range that covered 0 μM to 100 μM AMC.
For the molecule B1, the Kd was determined as 9.8 nM. Then B2, with 7.5 nM; and B3, with 14.7 nM; and B4, with 29.1 nM.

With B5, the Kd turned out to be 55 nM.

For the origin of these results see patent publication US20210238260A1 (published 2021).
